This is an account of results in PMC2824034, “The indispensable N-terminal half of eIF3j/HCR1 co-operates with its structurally conserved binding partner eIF3b/PRT1-RRM and eIF1A in stringent AUG selection” (Journal of molecular biology, 2010).

B1: heIF3b-RRM_(170-274) (domain or fragment, human, UniProt P55884 170-274, looked up)
chain: GDVLKDRPQEADGIDSVIVVDNVPQVGPDRLEKLKNVIHKIFSKFGKITNDFYPEEDGKTKGYIFLEYASPAHAVDAVKNADGYKLDKQHTFRVNLFTDFDKYMT
notes: 13C/15N-labeled in some NMR samples; The limits are printed for the NMR complex; the ITC names only heIF3b-RRM; also called human eIF3b-RRM; heIF3b-RRM domain; source: E. coli BL21(DE3), purified (nickel-chelating column, TEV cleavage, second nickel column)

Common to all, as to conditions: both partners purified
In test [1] the target is T1, heIF3j (full-length, untagged, wt) (human, UniProt O75822 1-258).
T1 construct: human eIF3j, full length; also called human eIF3j; wt heIF3j; source: E. coli BL21(DE3), purified (nickel-chelating column, TEV cleavage, second nickel column)
T1 sequence (O75822 whole entry): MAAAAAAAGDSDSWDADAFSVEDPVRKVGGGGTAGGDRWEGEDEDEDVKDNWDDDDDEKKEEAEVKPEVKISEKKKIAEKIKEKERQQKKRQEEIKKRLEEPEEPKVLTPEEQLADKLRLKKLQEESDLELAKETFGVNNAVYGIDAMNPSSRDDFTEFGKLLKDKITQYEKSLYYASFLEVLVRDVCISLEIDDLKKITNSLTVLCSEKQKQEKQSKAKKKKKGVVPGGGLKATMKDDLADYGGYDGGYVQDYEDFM
As to the kind of experiment: ITC; VP-ITC; cell: 50 μM full-length heIF3j wt or mutant; syringe: 1 mM heIF3b-RRM; 20 mM Hepes pH 7.5, 200 mM NaCl, 25°C. In general terms: In ITC the heat of successive injections is recorded.

Test [2] has as its target T2, heIF3j-N51A (human, UniProt O75822 1-258, N51A).
T2 construct: human eIF3j, full length, N51A; source: E. coli BL21(DE3), purified (nickel-chelating column, TEV cleavage, second nickel column)
The description is as above.

The target in test [3] is T3, heIF3j-W52A (human, UniProt O75822 1-258, W52A).
T3 construct: human eIF3j, full length, W52A; source: E. coli BL21(DE3), purified (nickel-chelating column, TEV cleavage, second nickel column)
T3 sequence (O75822 whole entry W52A): as the sequence (O75822 whole entry) above, with W52A counted along it
The description is as above.

Test [4] concerns the target T4, heIF3j-N51A-W52A (human, UniProt O75822 1-258, N51A | W52A).
T4 construct: human eIF3j, full length, N51A and W52A; source: E. coli BL21(DE3), purified (nickel-chelating column, TEV cleavage, second nickel column)
Described as above.

The target in test [5] is T5, heIF3j-D50K-D53K-D57K (human, UniProt O75822 1-258, D50K | D53K | D57K).
T5 construct: human eIF3j, full length, D50K, D53K and D57K; source: E. coli BL21(DE3), purified (nickel-chelating column, TEV cleavage, second nickel column)
T5 sequence (O75822 whole entry D50K/D53K/D57K): as the sequence (O75822 whole entry) above, with D50K, D53K, D57K counted along it
Described as above.

In test [6] the target is T1, heIF3j (full-length, untagged, wt). The experiment in a line: pull-down; His6-heIF3b-RRM (wt or mutant) incubated with untagged full-length heIF3j (30 μM each) 15 min at room temperature, His-select spin columns; 50 mM sodium phosphate pH 8, 100 mM NaCl; washes with 5 mM imidazole, elution with 250 mM imidazole; SDS-PAGE, InstantBlue.
Test [7] addresses B1. As to the kind of experiment: NMR solution structure; 13C/15N-labeled heIF3b-RRM with heIF3j peptide or labeled peptide with heIF3b-RRM; 20 mM deuterated TRIS pH 7.5, 100 mM NaCl, 25°C; 0.7 mM RRM, 0.7-1.0 mM peptide; 32 intermolecular NOEs.

T2 sequence (O75822 whole entry N51A): as the sequence (O75822 whole entry) above, with N51A counted along it
T4 sequence (O75822 whole entry N51A/W52A): as the sequence (O75822 whole entry) above, with N51A, W52A counted along it

A word on the Kd: it is the concentration at which binding is half-saturated. A high value points to a looser complex. Consider B1, for which the Kd is 20.3 µM in test [1]; 55 ± 0.3 µM in test [2]; over 10000 µM in test [3]; over 10000 µM in test [4]; over 10000 µM in test [5].

B2: His6-heIF3b-RRM-F261A (domain or fragment, human, UniProt P55884 170-274, looked up)
chain: GDVLKDRPQEADGIDSVIVVDNVPQVGPDRLEKLKNVIHKIFSKFGKITNDFYPEEDGKTKGYIFLEYASPAHAVDAVKNADGYKLDKQHTARVNLFTDFDKYMT
notes: human eIF3b, RNA recognition motif domain, F261A; source: E. coli BL21(DE3), purified (nickel-chelating column)
Turning to B2, in test [6], the binding result is listed as “binds”.

B3: His6-heIF3b-RRM-I210A (domain or fragment, human, UniProt P55884 170-274, looked up)
chain: GDVLKDRPQEADGIDSVIVVDNVPQVGPDRLEKLKNVIHKAFSKFGKITNDFYPEEDGKTKGYIFLEYASPAHAVDAVKNADGYKLDKQHTFRVNLFTDFDKYMT
notes: human eIF3b, RNA recognition motif domain, I210A; source: E. coli BL21(DE3), purified (nickel-chelating column)
Take B3: in test [6], the binding result is listed as “binds”.

B4: His6-heIF3b-RRM-Y253A (domain or fragment, human, UniProt P55884 170-274, looked up)
chain: GDVLKDRPQEADGIDSVIVVDNVPQVGPDRLEKLKNVIHKIFSKFGKITNDFYPEEDGKTKGYIFLEYASPAHAVDAVKNADGAKLDKQHTFRVNLFTDFDKYMT
notes: human eIF3b, RNA recognition motif domain, Y253A; source: E. coli BL21(DE3), purified (nickel-chelating column)
In the case of B4, the binding result in test [6] is reported as “binds”.

B5: heIF3j_(35-69) peptide (peptide, UniProt O75822 35-69, looked up)
peptide: GGDRWEGEDEDEDVKDNWDDDDDEKKEEAEVKPEV
notes: human eIF3j, residues 35-69, with the N-terminal acidic motif (NTA) around Trp52; 13C/15N-labeled in some NMR samples; also called heIF3j peptide; short heIF3j peptide; source: E. coli BL21(DE3), purified (nickel-chelating column, TEV cleavage, nickel column, HiTrap DEAE); not shown: His6, N-terminal, cleaved; lipoyl domain, N-terminal, cleaved
On to B5, for which, in test [7], the binding result was “binds”.
